By stoichiometry N is commonly meant the number of molecules, sites or subunits per partner or assembly.

In this experiment the target is His6-GroEL. As to the kind of experiment: cryo-EM structure; His6-GroEL captured from clarified E. coli lysate on Ni2+-activated BSA-PABA-GO-NTA coated lacey carbon 400 mesh grids; single particle analysis of 5363 particles in EMAN 2.1 with imposed D7 symmetry; 8.1 Å (gold standard, 0.143 criteria).

Sequence of His6-GroEL (A1AJ51 2-548): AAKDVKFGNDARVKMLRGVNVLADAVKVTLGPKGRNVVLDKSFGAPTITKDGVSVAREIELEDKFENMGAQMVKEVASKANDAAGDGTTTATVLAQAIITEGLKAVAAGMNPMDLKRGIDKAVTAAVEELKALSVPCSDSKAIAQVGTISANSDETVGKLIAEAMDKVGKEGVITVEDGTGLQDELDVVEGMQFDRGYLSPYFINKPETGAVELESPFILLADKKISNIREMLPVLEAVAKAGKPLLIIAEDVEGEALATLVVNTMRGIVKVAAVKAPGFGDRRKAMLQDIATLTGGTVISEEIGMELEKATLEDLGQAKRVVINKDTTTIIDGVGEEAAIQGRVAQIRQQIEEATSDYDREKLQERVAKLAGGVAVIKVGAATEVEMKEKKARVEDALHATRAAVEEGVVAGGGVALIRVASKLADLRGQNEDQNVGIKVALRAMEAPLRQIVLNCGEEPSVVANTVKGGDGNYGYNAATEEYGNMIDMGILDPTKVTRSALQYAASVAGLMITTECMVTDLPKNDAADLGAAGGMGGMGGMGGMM

Consider His6-GroEL (natural protein), for which the stoichiometry N was 14.

For the origin of these results see publication PMC5066248.
